Results taken from patent US7220554B2, “Methods for identifying inhibitors” (priority 2003, dated 2007).

Legend:
[1] = tested on: HIV-gpt(wt); test: Titers of HIV-gpt(wt) virions made in 293T or COS7 cells, infectivity in HeLa-CD4 cells; type: cell-based, HIV-1; settings: producer cells 293T and COS7 cotransfected
Description: (§1) To analyze the antiviral activity of pcDNA3.1-APOBEC3G-Myc, human 293T and African green monkey COS7 cells were transiently cotransfected with pcDNA3.1-APOBEC3G-Myc in the presence of vectors for expression of HIV-gpt(wt) or HIV-gpt(Δvif) [these are derivatives of wild-type (wt) or vif deleted (Δvif) HIV-1 with the bacterial gpt gene replacing the viral env gene; Madani & Kabat, J. Virol. […] 74, 5982–5987, 2000]. Virions were subsequently harvested from the culture media and analyzed their infectivities in HeLa-CD4 (clone HI-J) cells. […] Similar results were obtained with owl monkey kidney cells. Thus, HIV-1 Vif neutralizes human APOBEC3G-Myc in both human and monkey cells.

[2] = tested on: HIV-gpt(Δvif); test: Titers of HIV-gpt(Δvif) virions made in 293T or COS7 cells, infectivity in HeLa-CD4 cells; type: cell-based, HIV-1; settings: for antiviral activity of chimera: titer of virions from 293T cells in the absence of Vif: FIG. 12A
Description: as §1

[3] = tested on: HIV-1 encoded proteins; test: Immunoblotting of HIV-1-encoded proteins (Gag, Vif) in cotransfected producer cells; type: cell-based
Description: Expression vectors: pHIV-gpt(wt) and its derivative pHIV-gpt(Δvif) were previously described (Madani & Kabat, J. Virol. 72, 10251–10255, 1998; Page et al., J Virol 64, 5270–5276, 1990; Madani & Kabat, J. Virol. 74, 5982–5987, 2000). pcDNA3.1-Vif was donated by D. Gabuzda (Dana-Farber Cancer Institute, Harvard, Boston, Mass.). Rev-dependent plasmids for expression of the Vif mutants Δ2, Δ5, Δ6, Δ7, Δ9, Δ10, Δ12 and Δ13 (Simon et al., J. Virol. 73, 2675–2681, 1999) were provided by M. Malim (Medical Research Council, Cambridge, UK) and were coexpressed with pHIV-gpt(Δvif). APOBEC3G cDNA was cloned from H9 cells (nonpermissive) by reverse transcriptase-PCR (Barnes, Proc. Natl. Acad. Sci. USA 91, 2216–2220, 1994; Sambrook et al., Molecular Cloning. A Laboratory Manual, Chapter 14, 14.5–14.34., CSHL Press, Cold Spring Harbor, 1989) using primers complementary to the 5′ and 3′ ends of APOBEC3G coding region (Sheehy et al., Nature 418, 646–650, 2002) (upstream primer, 5′-[…]-3′ (SEQ ID NO: 15) containing an XhoI restriction site [underlined]; downstream primer, 5′-[…]-3′ (SEQ ID NO: 16) containing a SfuI restriction site [underlined]). […] Virus-containing fractions were detected by immunoblotting using HIV Immunoglobulin serum (AIDS Research & Reference Reagent Program, Division of AIDS, NIAID, NIH: contributed by NABI and NHLBI). […]

B1: APOBEC3G-Myc: fusion of human APOBEC3G with Myc epitope and 6×His tag, SEQ ID NO: 2 (protein)
chain: MKPHFRNTVERMYRDTFSYNFYNRPILSRRNTVWLCYEVKTKGPSRPPLDAKIFRGQVYSELKYHPEMRFFHWFSKWRKLHRDQEYEVTWYISWSPCTKCTRDMATFLAEDPKVTLTIFVARLYYFWDPDYQEALRSLCQKRDGPRATMKIMNYDEFQHCWSKFVYSQRELFEPWNNLPKYYILLHIMLGEILRHSMDPPTFTFNFNNEPWVRGRHETYLCYEVERMHNDTWVLLNQRRGFLCNQAPHKHGFLEGRHAELCFLDVIPFWKLDLDQDYRVTCFTSWSPCFSCAQEMAKFISKNKHVSLCIFTARIYDDQGRCQEGLRTLAEAGAKISIMTYSEFKHCWDTFVDHQGCPFQPWDGLDEHSQDLSGRLRAILQNQENFEQKLISEEDLNMHTGHHHHHH
modifications: Synthetic construct human APOBEC3G fused to Myc
With B1 the “effect on titers of HIV-gpt(wt)” value [1] was “no effect”, the “antiviral activity of chimera: titer of virions from 293T cells in the absence of Vif” value [2] was “low titer” and the “decrease of titers of HIV-gpt(Δvif) virions” value ([2]; producer cells 293T and COS7 cotransfected) was 25–100 fold. The “synthesis of HIV-1 encoded proteins in the producer cells or their packaging into virions” value [3] was “no significant or reproducible effect” and the “expression of Vif” value ([3]; FIGS. 3A and 3B) was “no effect”.

B2: APOBEC3G-luciferase (protein)
chain: MKPHFRNTVERMYRDTFSYNFYNRPILSRRNTVWLCYEVKTKGPSRPPLDAKIFRGQVYSELKYHPEMRFFHWFSKWRKLHRDQEYEVTWYISWSPCTKCTRDMATFLAEDPKVTLTIFVARLYYFWDPDYQEALRSLCQKRDGPRATMKIMNYDEFQHCWSKFVYSQRELFEPWNNLPKYYILLHIMLGEILRHSMDPPTFTFNFNNEPWVRGRHETYLCYEVERMHNDTWVLLNQRRGFLCNQAPHKHGFLEGRHAELCFLDVIPFWKLDLDQDYRVTCFTSWSPCFSCAQEMAKFISKNKHVSLCIFTARIYDDQGRCQEGLRTLAEAGAKISIMTYSEFKHCWDTFVDHQGCPFQPWDGLDEHSQDLSGRLRAILQNQENKLSMVTDAKNIKKGPAPFYPLEDGTAGEQLHKAMKRYALVPGTIAFTDAHIEVDITYAEYFEMSVRLAEAMKRYGLNTNHRIVVCSENSLQFFMPVLGALFIGVAVAPANDIYNERELLNSMGISQPTVVFVSKKGLQKILNVQKKLPIIQKIIIMDSKTDYQGFQSMYTFVTSHLPPGFNEYDFVPESFDRDKTIALIMNSSGSTGLPKGVALPHRTACVRFSHARDPIFGNQIIPDTAILSVVPFHHGFGMFTTLGYLICGFRVVLMYRFEEELFLRSLQDYKIQSALLVPTLFSFFAKSTLIDKYDLSNLHEIASGGAPLSKEVGEAVAKRFHLPGIRQGYGLTETTSAILITPEGDDKPGAVGKVVPFFEAKVVDLDTGKTLGVNQRGELCVRGPMIMSGYVNNPEATNALIDKDGWLHSGDIAYWDEDEHFFIVDRLKSLIKYKGYQVAPAELESILLQHPNIFDAGVAGLPDDDAGELPAAVVVLEHGKTMTEKEIVDYVASQVTTAKKLRGGVVFVDEVPKGLTGKLDARKIREILIKAKKGGKIAV
modifications: Synthetic construct human APOBEC3G fused to luciferase
With B2 the “antiviral activity of chimera: titer of virions from 293T cells in the absence of Vif” value [2] was “antiviral activity only in the absence of Vif”.
